Source: patent publication US20240093240, “GENE FUNCTION CONTROL BY NOVEL GUIDE NUCLEIC ACID MECHANISM” (NATIONAL UNIVERSITY CORPORATION KOBE UNIVERSITY, published 2024)

Assays:
RsAgo [1] = target: T1, RsAgo (UniProt A4WYU7 A4WYU7:1-777); test: EMSA; 20 mM HEPES-KOH pH 7.5, 200 mM NaCl, 5 mM MgCl2, 25 C; conditions: tag removed by Ulp1 protease
T1 sequence: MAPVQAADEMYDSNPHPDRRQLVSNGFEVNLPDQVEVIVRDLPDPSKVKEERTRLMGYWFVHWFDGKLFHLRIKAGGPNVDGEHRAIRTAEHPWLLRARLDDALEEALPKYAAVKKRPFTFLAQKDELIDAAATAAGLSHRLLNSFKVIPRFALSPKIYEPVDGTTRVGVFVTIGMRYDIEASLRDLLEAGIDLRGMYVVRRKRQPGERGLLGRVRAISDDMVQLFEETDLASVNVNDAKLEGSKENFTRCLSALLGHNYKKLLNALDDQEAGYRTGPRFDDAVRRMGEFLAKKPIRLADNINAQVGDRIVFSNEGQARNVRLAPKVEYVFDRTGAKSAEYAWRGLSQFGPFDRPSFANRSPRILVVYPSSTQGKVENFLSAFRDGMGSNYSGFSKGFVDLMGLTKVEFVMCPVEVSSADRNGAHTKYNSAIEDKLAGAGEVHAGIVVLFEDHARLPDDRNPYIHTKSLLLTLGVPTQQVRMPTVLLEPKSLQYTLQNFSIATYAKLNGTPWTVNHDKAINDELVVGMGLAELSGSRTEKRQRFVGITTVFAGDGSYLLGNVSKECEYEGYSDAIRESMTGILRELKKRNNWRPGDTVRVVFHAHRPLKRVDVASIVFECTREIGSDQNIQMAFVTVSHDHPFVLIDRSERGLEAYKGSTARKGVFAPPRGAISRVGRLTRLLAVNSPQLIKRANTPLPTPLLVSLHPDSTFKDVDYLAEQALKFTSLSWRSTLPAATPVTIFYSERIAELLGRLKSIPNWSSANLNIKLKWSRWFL
Procedure: (§1) The purified protein and synthetic oligonucleotide were mixed in the presence of the above reaction buffer and incubated for 20 minutes at 25° C. […] Detection was performed with Blue light LED.

RsAgo [2] = target: T1, RsAgo; test: EMSA; high affinity to 5'-P ssRNA; 5 mM MgCl2, 200 mM NaCl, 25 C; conditions: tag removed by Ulp1 protease; label: 3'-FAM
Procedure: as §1

RsAgo [3] = target: T1, RsAgo; test: EMSA; 500 nM RsAgo, 100 nM guide, 100-1000 nM target; 5 mM MgCl2, 25 C; conditions: tag removed by Ulp1 protease; label: 3'-FAM; duplex with 18 nt mismatched bubble over the target site
Procedure: (§2) The purified protein (final 500 nM) and labelled guide RNA (final 100 nM) were mixed in the presence of the above reaction buffer and incubated for 15 minutes at 25° C. to form a complex. The target DNA was added (final 100 to 1000 nM) thereto.

RsAgo [4] = target: T1, RsAgo; test: EMSA; cannot bind fully double stranded DNA on its own; 5 mM MgCl2, 25 C; conditions: tag removed by Ulp1 protease; label: 3'-FAM
Procedure: as §2

Binder: UUACAACCUACUACCUCG (ssRNA) [ssRNA 18 nt 5'-OH]
- binding result (RsAgo [1]; label: 3'-FAM): binds

Binder: UUACAACCUACUACCUCG (ssRNA, 5'-phosphate) [ssRNA 18 nt 5'-phosphate guide]
- binding result (RsAgo [2]): binds

Binder: CGAGGTAGTAGGTTGTAA (ssDNA) [ssDNA 18 nt]
- binding result (RsAgo [1]; label: 5'-FAM): binds

B1: ssRNA 18 nt 5'-phosphate guide ; bubble target, 18 nt unpaired (ssRNA ; structured_DNA)
RNA: UUACAACCUACUACCUCG
DNA 1: GGATAACAATTCCCCTCTAGAAGTGGTTCGTGCTTCAACATGGGTCATCACCATCATC
DNA 2: GATGATGGTGATGACCCATGCGAGGTAGTAGGTTGTAACTAGAGGGGAATTGTTATCC
modifications: 5'-phosphate
- binding result (RsAgo [3]): binds

B2: ssRNA 18 nt 5'-phosphate guide ; fully double stranded target (ssRNA ; dsDNA)
RNA: UUACAACCUACUACCUCG
DNA 1: GGATAACAATTCCCCTCTAGTTACAACCTACTACCTCGCATGGGTCATCACCATCATC
DNA 2: GATGATGGTGATGACCCATGCGAGGTAGTAGGTTGTAACTAGAGGGGAATTGTTATCC
modifications: 5'-phosphate
- binding result (RsAgo [4]): no binding
